This note sets out measurements from PMC2918618, “Characterization of the TnsD-attTn7 complex that promotes site-specific insertion of Tn7” (Mobile DNA, 2010).

Assay in all cases: EMSA; Gel-shift buffer not given (as described in ref. 6); TnsD stored in 500 mM KCl, 50 mM Tris-HCl pH 8.0, 1 mM EDTA, 2 mM DTT, 25% glycerol
What all share (settings): protein: recombinant; tags: intein-chitin tag, cleaved with DTT

The target of one data set is T1, TnsD wt (Escherichia coli (transposon Tn7), UniProt P13991 1-508).
T1 sequence: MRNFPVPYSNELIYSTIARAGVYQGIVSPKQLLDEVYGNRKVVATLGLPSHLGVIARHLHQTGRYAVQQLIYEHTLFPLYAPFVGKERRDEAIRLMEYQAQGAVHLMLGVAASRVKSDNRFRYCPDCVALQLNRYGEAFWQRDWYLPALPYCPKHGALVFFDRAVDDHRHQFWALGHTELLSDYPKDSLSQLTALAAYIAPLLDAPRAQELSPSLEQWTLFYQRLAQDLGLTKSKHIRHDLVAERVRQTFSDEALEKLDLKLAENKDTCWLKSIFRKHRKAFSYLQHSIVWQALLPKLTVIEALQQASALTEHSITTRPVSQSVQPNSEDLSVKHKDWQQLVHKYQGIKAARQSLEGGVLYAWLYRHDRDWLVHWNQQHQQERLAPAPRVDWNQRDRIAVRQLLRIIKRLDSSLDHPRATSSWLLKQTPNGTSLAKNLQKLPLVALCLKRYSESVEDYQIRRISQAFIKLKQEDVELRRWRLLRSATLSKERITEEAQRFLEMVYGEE

A further data set has as its target T2, TnsD H155S (Escherichia coli (transposon Tn7), UniProt P13991 1-508, H155S).
T2 sequence: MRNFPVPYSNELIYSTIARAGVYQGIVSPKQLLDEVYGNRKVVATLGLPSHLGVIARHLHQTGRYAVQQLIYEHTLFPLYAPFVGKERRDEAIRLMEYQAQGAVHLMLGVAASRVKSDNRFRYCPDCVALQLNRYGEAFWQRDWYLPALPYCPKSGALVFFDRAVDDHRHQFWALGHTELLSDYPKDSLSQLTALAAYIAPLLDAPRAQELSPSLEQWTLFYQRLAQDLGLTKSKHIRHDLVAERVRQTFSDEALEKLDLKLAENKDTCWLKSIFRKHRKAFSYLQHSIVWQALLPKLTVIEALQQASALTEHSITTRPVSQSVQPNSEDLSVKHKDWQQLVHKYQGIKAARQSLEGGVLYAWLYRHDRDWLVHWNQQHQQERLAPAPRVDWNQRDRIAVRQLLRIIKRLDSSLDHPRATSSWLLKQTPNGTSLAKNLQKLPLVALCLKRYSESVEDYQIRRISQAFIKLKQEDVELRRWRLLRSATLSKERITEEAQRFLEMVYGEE

A further data set deals with T3, TnsD C127S (Escherichia coli (transposon Tn7), UniProt P13991 1-508, C127S).
T3 sequence: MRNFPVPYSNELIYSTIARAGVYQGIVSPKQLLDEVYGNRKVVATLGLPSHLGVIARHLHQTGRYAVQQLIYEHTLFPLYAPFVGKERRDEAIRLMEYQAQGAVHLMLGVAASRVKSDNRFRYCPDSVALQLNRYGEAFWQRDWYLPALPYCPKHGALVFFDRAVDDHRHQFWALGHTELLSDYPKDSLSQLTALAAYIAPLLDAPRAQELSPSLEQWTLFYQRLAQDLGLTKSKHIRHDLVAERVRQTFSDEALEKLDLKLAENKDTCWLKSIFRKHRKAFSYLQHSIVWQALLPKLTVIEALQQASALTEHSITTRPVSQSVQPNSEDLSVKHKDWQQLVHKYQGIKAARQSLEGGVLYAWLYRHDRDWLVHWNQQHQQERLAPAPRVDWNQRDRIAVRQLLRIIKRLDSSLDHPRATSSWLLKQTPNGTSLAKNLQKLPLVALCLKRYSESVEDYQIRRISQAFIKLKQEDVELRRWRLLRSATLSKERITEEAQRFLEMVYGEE

Another data set concerns the target T4, TnsD C124S (Escherichia coli (transposon Tn7), UniProt P13991 1-508, C124S).
T4 sequence: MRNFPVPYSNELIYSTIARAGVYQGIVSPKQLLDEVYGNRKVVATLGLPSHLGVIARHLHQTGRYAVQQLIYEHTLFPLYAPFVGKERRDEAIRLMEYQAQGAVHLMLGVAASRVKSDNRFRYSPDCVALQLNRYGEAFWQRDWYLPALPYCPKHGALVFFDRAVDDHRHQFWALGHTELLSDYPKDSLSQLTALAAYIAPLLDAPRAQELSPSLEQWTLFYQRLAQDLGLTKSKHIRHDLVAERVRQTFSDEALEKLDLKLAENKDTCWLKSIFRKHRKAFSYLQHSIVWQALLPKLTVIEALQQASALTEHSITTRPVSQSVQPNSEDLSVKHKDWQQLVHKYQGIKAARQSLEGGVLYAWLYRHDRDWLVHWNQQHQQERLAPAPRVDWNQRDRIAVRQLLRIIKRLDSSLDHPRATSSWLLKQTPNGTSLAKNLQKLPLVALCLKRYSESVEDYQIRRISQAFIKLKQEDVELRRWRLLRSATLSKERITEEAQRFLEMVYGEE

B1: attTn7 wt (+23 to +58) (dsDNA)
DNA 1: CCGCGTAACCTGGCAAAATCGGTTACGGTTGAGTAA
DNA 2: TTACTCAACCGTAACCGATTTTGCCAGGTTACGCGG
Take B1: the binding signal is 1 relative to wt with TnsD wt, 0.05 relative to wt with TnsD H155S, 0.05 relative to wt with TnsD C127S and 0.05 relative to wt with TnsD C124S.
